Protease stability score data for 47 sequences are collected here from the NTF2 design screens of Basanta et al. (2020).

The series is described as follows: protease stability score; higher = more stable; yeast display proteolysis, trypsin and chymotrypsin.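 Note: relative to predicted unfolded state with 0 unfolded-like and 1 meaning tenfold more protease.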
The sequence “SEEDDQAEEFARKMITDFLTGNWKKMMDLFDPNVRLRWHVDGRDKHHIGREVVSEILRRYVEEIRIHSISIESVENYDGVSIVHSHYEWEVNGQKRETHVLLEFVIINGRARSISIHIH” returned a protease stability score of 1.11.

Consider “SEEDEADHELVQWMLEILQTGDEETFRTFADPSTRHISHIDGKEMHIHGRESASEVLLTTWKELGVDVFHLHQYRYFNGRVDIEFELHQGNKTIELHFHYQIINGRLKRIEIRVHHE”, for which the protease stability score worked out at 1.14.

Take “SEEDEDAMRSAEFLVKKLNTGDEDWYQHLFDPHTKLEIGNFTSHGMHVSLKQWREMGADHVHVQDIDVFDGRVHVRTHIHVNGQTVEVLIILVKVNGRWIVERIRMK”: the protease stability score was found to be 0.66.

In turn, “SEEDEDKELVRHLVEKLIKTGDETLMHEMFDPNARLRVNGRDFHGRESIVKAMLEFLRWLGVDHIHFEHIIVRIVDGRIEINVTVRVEQGDKRTELRIHTRATKIDGKWILTSLTLDVR” yielded a protease stability score of 1.13.

Regarding “SEEDEDVKRILELWLRSEETGDEHLSLELADPNTRKHQGDKEFHGMSKLVQLLAELYRRADHSHFIEKRVEVFENHVRIVGHFVLIVGEFRIVVDILILARKIDGRWILTRVNWR”, the protease stability score stood at 1.51.

As for “SEEDEEAERMVRALNHKFRTGDWELSEKLFDPNTKLEIIINGKHIDIHGREMVIRLMEDELRRFDHVDIEIKRVDSQGEKANNDGVLVIKQGDFEVRHRFTLIIHVVNGVIKKISILFH”, the protease stability score was 0.996.

For “SEEDEEAERWVRMLEHLIRTGDEEILNSFADPNVRYIQGDKHLHGRETVYEYLEELWRKLGVDHMNIKDRHLRVFNGRVHLQLFVHFTVNGRSFDSILRFDTIKIDGQWHMHRIVVEII”, the protease stability score turned out to be 1.31.

In the case of “SEEDEEFKHHIKLLIESLETGDWRTDRRLADPHVRLEVGDKTIHGMDEYLEFMSEIRFTRLEISSVEIQGDKLHANGETDGIVNGKRVKVESTFIIIKVDGRWIIEHERMH”, the protease stability score is -0.372.

“SEEDEEFRHVVERWVRAVTTGNEDELESLLDPNVRLDVGDKRTHGREKWTELFRHLRTQVHHIEITEKHTVGDKVHYRGTLDMTFYVDGVDVRSETETTLVMVKYNGRWQYTHVIIH” displayed a protease stability score of 1.15.

Take “SEEDEEIHRNLRILVEAIHTGDETTMSKLIDPHARLKVGDKDHHGREKMTEFLIELGIDHIVFRRTRIINGRAEHHGHIKVGDKKMETRIISDKIDGKWIITEVIIH”: the protease stability score amounted to 1.51.

Consider “SEEDEELKEWLEEFVHALKTGDENLLQRLADPNTRLIFDGRKFHGREEYRKNYEHLRHRIDHIHDEKSTTVHLINGKVTVESRLDGEINGKRIIFKTIIFYWKFDGRWFLRSEEIR”, for which the protease stability score amounted to 0.935.

“SEEDEELREMARLIILLEWTGDEETFEHLADPHVRSHINGVHLHGRETVSKWLMHVREHLRFNDIRIRDLWVFNGKVKINGEYDGHVNGRRIRYTVHLYFVIIDGRIREISREHR” gave a protease stability score of 0.301.

As to “SEEDEERKHFLELWRESFETGDEDSSRDMADPNTRIHIGDKEQVGWEDVMHEMVKIKNARYHIVVHHVEIQGDKLTMDGEVRIDVNGRLIQIRTIIIARKYDGRWIVTHVHIH”, the protease stability score is 1.3.

Sequence “SEEDEETEHITRLIFRAMVTGDWKELLDNLDPHTRVDINGRDQHGWEVMREWVERIKNVQLRIRRISVQGDKTRLDTEFRQGDKSVHVEVRITIVDGVVQHIEFKDR” gave a protease stability score of 1.6.

Sequence “SEEDEETRKFLDLLFETRHTGDEEMSRQLADPNYQEEFENHTFHGREDFSRFIKELRIHEIRITHIYAQGDKLHIDGELRGEFNGQEVRFRVELHVVKIDGRWVLKSMRVV” yielded a protease stability score of 1.44.

“SEEDEEVRHVLELLIHAWRTGDERLLMHLLDPHAKFIVGDKELHGREQISRVWKELRIEDSDVHSIELVNGRLRLDTHLIITIGDKHVDVKTRELIVKIDGRWVLEFLEVR” returned a protease stability score of 1.37.

As to “SEEDEFNREMRREIIEAWETGDFRIIEKLLDPNAKVVVGDYIDHGRHAIEVWLKRYDVRRRRDYKHVEVYDGVIRSDVRMDGEINGQRKITSVHIIFVIINGRIHQVEIHIH”, the protease stability score was found to be 1.25.

The sequence “SEEDEFVHEMVEILLKMFLTGDFQHFKRLADPHVMFVFNGKRFHGRHWVLDELIRFPNIKFELTHYEFDDINGVVHINIFGQRDVDGKNENVELHFVVEKVDGRWKIHRIIFRLR” yielded a protease stability score of 1.11.

“SEEDEHAEHMLRLWLHAIETGDEKLLLELVDPHAKNDVNGVDLHGRHEVWRHVYEMLHKFKNIRWDITETRYIGDYVHIRGILRQGDKTHDIRIKVVSFNGRIKKVEIRIE” registered a protease stability score of 2.48.

Sequence “SEEDEHLERLFRDLIDSFVTGDEDSWHQLADPNARLIVGDKTYHGREKISEYWRRMREEIRVEIKVDHVDIQGDKVHSRVTLIVRINGREIRRDTHMLIIVWNGRFKEERIIPR” displayed a protease stability score of 1.25.

“SEEDEHLRHLAELFVKLLLTGDFNTLHHLLDPHVKFNIGEFESHGMEHLWRAWEEWRFHHISLEDVRVQGDKAHLHFRSTVHYNGRTKRVDTHVEIKVVNGRFKEVHIRIH”: the protease stability score was 1.59.

Sequence “SEEDEHMRRLVEIIIHNWHTGDEEKLANMMDPNAKSNINGVELIGRDLITSFLKEELKRLGVKHVHDTEIHLQGNKSIIHSRVHVNGVDIEMEIIIIIIDGVIKEVEWRRR” yielded a protease stability score of 1.96.

Regarding “SEEDEHSERALTLLNHLIMTGDFHDWERFFDPHVRFVVNGVEFHGREDVVRFLLELLERFKNVKIEMESWEIQGDKITSHYHEHVNGVRIERTVIMRKFNGRWFIQEVRFN”, the protease stability score is 0.281.

Regarding “SEEDEIAEKILRLYLELFKTGDWRRFEELLDPNVRLEFNGRFYHGREEISRIMKEFHNKFKNVRIELTSFEVQGEKNIMRSSENINGVERETEIYLDIWNGRIQSLIIRVR”, the protease stability score came out at 2.25.

“SEEDEIAKHVWERFFKNVLTGDEDTLLRLLDPDTRLIVIIGDKEIHLHGREELSKFLSELRIHHLEITDWVSQGEKARTHVRSDGTVDGKRHHTEMELILIVINGRIKEIRILVR” displayed a protease stability score of 1.07.

The sequence “SEEDEIMRRLIDITLHAFQTGDWEAVKTMADPNTRLHVNGRDIHGRDEILRFLEKSRRDLGVENIRIDYTDYRQFDGKVKYHGTDIYNGQRLETTIIIVIVDGKMKTETREIR” came in with a protease stability score of 0.82.

With “SEEDEIVRKLSEIMIHSLETGDFDSFRELADPDYRIETEDHEIVGMEEFERWLKEHLDRFDYDKWEYHSLHIYGDKVKMDIELHLDIDGVKRTHDVYIIIRKYNGQWIVESFMFK”, the protease stability score was -0.384.

The sequence “SEEDEKKEEETRLMLEWWRTGDEHAIARNMDPDARLEVDGKERHGREEVLRFISEMLKRLGVDHVRITDWRIIGDFVEVDLSIEVGDKSRKFHLHFFIIDGRIKEIKIDER” displayed a protease stability score of 1.39.

Turning to “SEEDEKSHKLWEEMLEIFMTGDWKRESELADPEARRVFIVDGVNHVFHGRETITEALLRWHKEMRVHDFKLHDRRYQGEKFHVDGIVDGEYNGKKRIYEVEIIIIVVDGRVHSLEFEHK”, the protease stability score worked out at 0.296.

Sequence “SEEDELAHRWVRTWVRAVETGDEDTLTELFDPHARIIITIGDKDIRLHGMHEMLRWYRFFKGMRIELEDMDIQGEKIDTDIRLHQGDKTTTTKLQLHIVNGRMEHVILRVQ” came in with a protease stability score of 1.54.

The sequence “SEEDELAKRILETLVRLLLTGNEELRHELADPNMRTEVDGVDLWGMHNDVHFWREIRLKELRIRHIEVQGDKSHSITDLDVEIDGKRIRVETKIRVVVVNGKIHRLHVRID” returned a protease stability score of 1.51.

Turning to “SEEDELAKYVIRLWVEEFRTGDEESMFRLLDPHVLVQQGDKEYHGRERWEDFIRKLGLQNVRVEVHRVTIQGEFIHVDGIIEIGDKRTRYILYFEKFNGRWINKELRIK”, the protease stability score turned out to be 1.48.

Consider “SEEDELAMEFMREQDRNQETGDWRRLSELADPNTRVEVNGREIHGMELWIKLLINKLREHGMEVRLHVERVEFYDGVADLDLRLYIHINGKDIHFHTQIIILKINGKWILKYIIIR”, for which the protease stability score was determined as 1.25.

In turn, “SEEDELAREVSRIFTEASRTGDEERLIRLIDPHAKIQIGDKHFIGREDMEEWTRRLVERVDHLEVFIEDSRLIGNKLDVKGLFIEDYGDKRTVLEVRWILVKINGRWSIHSLHFK” had a protease stability score of 1.23.

Sequence “SEEDELDERLLKIMRHAFETGDEEIFMRLVDPHTRTEFNGQEVHGREHLHRWLKEILRTLGVKYVERKDIRAWDGRIHLEFEMHVNGRTLKLTVVVIFINGKLHEYSERIE” displayed a protease stability score of 1.61.

On to “SEEDELLREVFELWVEIVRTGDESRLKKLLDPHVRLIYNGRRYHGWEEVVRFYREWRIKSMSIHSIETQGDKAHANSETDIEYNGKRERSDIRIHMIVINGRIHHIEIREH”, for which the protease stability score was found to be 2.39.

On to “SEEDELMEEWRRLFIHSFLTGNEDELHRLIDPNARFIINGVNLHGWKALETKLRELGAKHIEVRERHEHRQGNKLELHVHIIIHQGDKDLREDVRIENEKVNGRWVVRTIEEK”, for which the protease stability score is 1.07.

Turning to “SEEDELNHRISHLLTRMRRTGDEDTWHRLADPNMRLEINGVISHGREEALRILSEVDDILGIDRFSVHLDRYTWDGNYIHNDMTFEINGRDLRVHVDSLVINGRMHHERVRVE”, the protease stability score was -0.516.

In turn, “SEEDELTRELVELWLHVFHTGDEEIMYKLADPNARVDVLIDGKRLDLVGREEIRRFLHEWHREAGFKHFDLHDIHFQGEKVHIDGREVYGDKFFRVIIHIHIVNGRIKSTKIEIR” returned a protease stability score of 1.67.

“SEEDELYRHIAEHLLHLLHTGNEEILDHLLDPHVKLEINIGDKRDEFIGRHSLREWLSRFKNVKLHVHDDKVINGVNHVDGTLDINGRRTHIEIHLHVYNGKVRRLQFNIH” came in with a protease stability score of 1.62.

“SEEDEMAEEMMRWFLEILETGNEELFNHYADPNVIDIVGDKRVHGMDRFSELHHIFLRHWRIHRRRENTIETYNGRAHIDGEIEGKVNGREKNIRVEIKLNVVNGVIKKVEVTYN” came in with a protease stability score of 0.379.

“SEEDEMIEELMRTIIRLFHTGDWEKKAKLMDPNTRSVIGDKHAHGREEIVRLFLEYWRELGIDHISIHDVKLQGDKVIVNGKLRVGEKTIDVRIHYVVVNGRLKSERFEEE” registered a protease stability score of 0.327.

“SEEDEMSKRFLDDLLHNLRTGDFDRLKNELDPHAKLVVDGQELHGMELASKRDLEMRVNHLEIRHVEIQGEWIHLKGEMDGEVNGKRNIHEVHVLLFKINGRWYVREVWIR” returned a protease stability score of 1.41.

As for “SEEDEMVRYVFELYAIAIETGDEDTLRNMFDPNAKIKFDGVDIHGRENIKRILREWRSSVHHWQIREKEIYGDKISLNVFQDLRFTIDGQFRRITTEVKVEIIKINGKWFFTHLEYI”, the protease stability score stood at 0.995.

“SEEDEQSKKILHIFIEILKTGDFETLEHMLDPNAKLDIDGRDLHGRELFLSMWEEFVRQYKNLRIIFRDYRLYGDYVIIHGQLRINGKTHDLRFHIVNINGRLKHLKIEHE” displayed a protease stability score of 1.46.

“SEEDERTYKVAKDWHEALQTGNEEIMERLLDPHVRIDVVVDGKKSHKHGMEVVSETLRRIREHLRMKWEIHRVDAQGDKLFVDGRYHIEVGDKKEHYIMHVLMIVIDGRLHSLTIRNE” returned a protease stability score of 1.1.

In turn, “SEEDEVSERLAREYLHIWKTGDEDRLAKLLDPHTRFIYVIGDKELELIGRDKFAEFLRHLWEELGVNHFDVHDFKVYGEKVQLDTTEEYGDKNFRMHIDIVVIDGKVKFIRIKER” gave a protease stability score of 1.33.
